This series concerns the molecule itself. The series can be described thus: size exclusion chromatography (HPLC, TSK G3000SWXL), phosphate buffer pH 7.4; self-association. The method, then:
0.02 ml of a protein (conc. 5-20 μM) was injected into a TSK G3000SWXL column (TosoHaas, Japan) and a phosphate buffer solution (50 mM sodium phosphate/150 mM NaCl, pH 7.4) was flowed therein at a flow rate of 0.7 ml/min and the chromatogram of the proteins was obtained from the absorbance at 280 nm.
(In general: In gel filtration, larger molecules generally elute earlier.)

B1: 3D8 VH protein (heavy-chain variable domain of anti-DNA antibody 3D8) (other)
VH: EVQLQQSGPELVKPGASVKMSCKASGYTFTSYVMHWVKQKPGQGLEWIGYINPYNDGTKYNEKFKGKATLTSDKSSSTAYMELSSLTSEDSAVYYCARGAYKRGYAMDYWGQGTSVTVSS
notes: Isolated single VH domain of mouse (MRL-lpr/lpr) IgG2a/kappa antibody 3D8; It was expressed in E. coli from vector pIg20H-3D8 VH and purified on IgG-sepharose
For B1, the binding result is given as “no binding (tested: 5-20 µM)”.

B2: 3D8 VL protein (light-chain variable domain of anti-DNA antibody 3D8) (other)
VL: DIVMSQSPSSLAVSAGEKVTMSCKSSQSLFNSRTRKNYLAWYQQKPGQSPKLLIYWASTRESGVPDRFTGSGPGTDFTLTISSVQAEDLAVYYCKQSYYHMYTFGSGTKLEIKRAD
notes: Isolated single VL domain of mouse (MRL-lpr/lpr) IgG2a/kappa antibody 3D8; It was expressed in E. coli from vector pIg20L-3D8 VL and purified on IgG-sepharose; This domain was immobilized on the CM5 chip in the SPR assay
Regarding B2, the binding result was “no binding (tested: 5-20 µM)”.

The record behind these values is US20110201104A1 (SUNGKYUNKWAN UNIVERSITY FOUNDATION FOR CORPORATE …, published 2011).
